Experimental data from IntAct's records for PubMed 10913138.

B1: Protein S100-B (Homo sapiens), P04271 (parent)
chain: MSELEKAMVALIDVFHQYSGREGDKHKLKKSELKELINNELSHFLEEIKEQEVVDKVMETLDNDGDGECDFQEFMAFVAMVTTACHEFFEHE
B2: Protein S100-B (Homo sapiens), P04271 (parent)
chain: B1 chain
partner: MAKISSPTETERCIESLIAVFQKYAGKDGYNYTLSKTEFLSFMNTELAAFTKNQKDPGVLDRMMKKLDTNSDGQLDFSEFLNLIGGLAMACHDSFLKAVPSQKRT

Variants of: B1
Details: with S100A6, P06703

effect of a mutation on the interaction | Variant
decreasing interaction | F89A

Variants of: B1
Details: with S100A6, P06703
Remark: another data set of the same source

effect of a mutation on the interaction | Variant
decreasing interaction | F88A

Variants of: B2
Details: with S100A11, P31949

effect of a mutation on the interaction | Variant
decreasing interaction | F89A
